# Tests used:
# [1] = test system: Indicator molecule of Example 4 with 7 MMP9 cleavage sites (ALP first capture region, terminal biotin via PEG)
# [2] = test system: Indicator molecule of Example 4 with 2 MMP9 cleavage sites (ALP first capture region, terminal biotin via PEG)
# [3] = test system: Indicator molecule of Example 5 with 4 MMP9 cleavage sites (terminal biotin, DNP, FITC)
# [4] = test system: Indicator molecule of Example 2 (peptide with one MMP9 cleavage site, first capture region ALP, terminal biotin via polyethylene glycol spacer)
# [5] = test system: Indicator molecule of Example 4 with 3 MMP9 cleavage sites (ALP first capture region, terminal biotin via PEG)
# [6] = test system: Indicator molecule of Example 5 with 2 MMP9 cleavage sites (terminal biotin, DNP, FITC)
# [7] = test system: Indicator molecule of Example 3 (synthetic peptide with MMP-9 sequence, HNE sequence, DNP, fluorescent label and terminal biotin via PEG)
# [8] = test system: Indicator molecule of Example 5 with 3 MMP9 cleavage sites (terminal biotin, DNP, FITC)
# [9] = test system: Indicator molecule of Example 4 with 5 MMP9 cleavage sites (ALP first capture region, terminal biotin via PEG)
# Sequence of Matrix Metalloprotease-9 (MMP-9) (Mologic) (chain, as listed by the source): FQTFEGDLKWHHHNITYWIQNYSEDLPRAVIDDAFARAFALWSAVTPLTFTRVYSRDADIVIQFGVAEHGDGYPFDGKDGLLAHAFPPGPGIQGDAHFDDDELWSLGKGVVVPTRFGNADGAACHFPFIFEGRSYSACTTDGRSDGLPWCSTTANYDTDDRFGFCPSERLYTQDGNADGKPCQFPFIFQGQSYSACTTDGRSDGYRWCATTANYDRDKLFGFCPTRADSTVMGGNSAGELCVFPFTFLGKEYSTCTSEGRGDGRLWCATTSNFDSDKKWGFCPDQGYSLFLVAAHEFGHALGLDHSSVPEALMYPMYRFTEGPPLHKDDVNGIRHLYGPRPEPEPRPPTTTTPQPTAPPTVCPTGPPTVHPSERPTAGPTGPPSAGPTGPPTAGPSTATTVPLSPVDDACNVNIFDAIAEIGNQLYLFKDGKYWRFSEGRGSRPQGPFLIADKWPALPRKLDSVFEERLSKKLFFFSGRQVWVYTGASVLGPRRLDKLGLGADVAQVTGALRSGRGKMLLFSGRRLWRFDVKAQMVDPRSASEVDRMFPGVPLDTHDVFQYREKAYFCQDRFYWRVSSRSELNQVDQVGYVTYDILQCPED
substance,measurement,setting,value
Matrix Metalloprotease-9 (MMP-9) (Mologic),sensitivity of the assay,[1],<31.25 ng/ml for an indicator molecule having 7 cleavage sites
same,test line signal at 31.25 ng/ml MMP9,[1],2.27 reader units
same,test line signal at 62.5 ng/ml MMP9,[1],2.81 reader units
same,test line signal at 125 ng/ml MMP9,[1],3.25 reader units
same,test line signal at 250 ng/ml MMP9,[1],6.19 reader units
same,test line signal at 500 ng/ml MMP9,[1],9.31 reader units
same,test line signal at 1000 ng/ml MMP9,[1],21.3 reader units
same,test line signal at 2000 ng/ml MMP9,[1],25.3 reader units
same,test line signal at 31.25 ng/ml MMP9,[2],0.68 reader units
same,test line signal at 62.5 ng/ml MMP9,[2],0.32 reader units
same,test line signal at 125 ng/ml MMP9,[2],0.57 reader units
same,test line signal at 250 ng/ml MMP9,[2],1.99 reader units
same,test line signal at 500 ng/ml MMP9,[2],3.48 reader units
same,test line signal at 1000 ng/ml MMP9,[2],12 reader units
same,test line signal at 2000 ng/ml MMP9,[2],11.8 reader units
same,cut-off of the assay,[3],The cut-off with all indicator molecules was below <31.25 ng/ml
same,test line signal at 31.25 ng/ml MMP9,[3],2.69 reader units
same,test line signal at 62.5 ng/ml MMP9,[3],2.94 reader units
same,test line signal at 125 ng/ml MMP9,[3],5.63 reader units
same,test line signal at 250 ng/ml MMP9,[3],10.1 reader units
same,test line signal at 500 ng/ml MMP9,[3],11.2 reader units
same,test line signal at 1000 ng/ml MMP9,[3],16.3 reader units
same,test line signal at 2000 ng/ml MMP9,[3],16.2 reader units
same,detectable limit of the lateral flow cleavage assay,[4],approximately 250-500 ng/ml
same,sensitivity of the assay,[4],"250-500 ng/ml MMP9, seen with an indicator molecule having 1 cleavage site"
same,test line signal at 31.25 ng/ml MMP9,[4],0 reader units
same,test line signal at 62.5 ng/ml MMP9,[4],0 reader units
same,test line signal at 125 ng/ml MMP9,[4],0 reader units
same,test line signal at 250 ng/ml MMP9,[4],0 reader units
same,test line signal at 500 ng/ml MMP9,[4],1.93 reader units
same,test line signal at 1000 ng/ml MMP9,[4],4.52 reader units
same,test line signal at 2000 ng/ml MMP9,[4],8 reader units
same,test line signal at 31.25 ng/ml MMP9,[5],0 reader units
same,test line signal at 62.5 ng/ml MMP9,[5],0 reader units
same,test line signal at 125 ng/ml MMP9,[5],0 reader units
same,test line signal at 250 ng/ml MMP9,[5],0.92 reader units
same,test line signal at 500 ng/ml MMP9,[5],3.84 reader units
same,test line signal at 1000 ng/ml MMP9,[5],7.57 reader units
same,test line signal at 2000 ng/ml MMP9,[5],10.5 reader units
same,cut-off of the assay,[6],The cut-off with all indicator molecules was below <31.25 ng/ml
same,test line signal at 31.25 ng/ml MMP9,[6],1.36 reader units
same,test line signal at 62.5 ng/ml MMP9,[6],1.78 reader units
same,test line signal at 125 ng/ml MMP9,[6],3.46 reader units
same,test line signal at 250 ng/ml MMP9,[6],5.44 reader units
same,test line signal at 500 ng/ml MMP9,[6],6.87 reader units
same,test line signal at 1000 ng/ml MMP9,[6],5.48 reader units
same,test line signal at 2000 ng/ml MMP9,[6],12.8 reader units
same,cut-off of the assay,[7],The cut-off with all indicator molecules was below <31.25 ng/ml
same,detectable limit of the lateral flow cleavage assay,[7],approximately 125-250 ng/ml
same,test line signal at 31.25 ng/ml MMP9,[7],1.37 reader units
same,test line signal at 62.5 ng/ml MMP9,[7],1.28 reader units
same,test line signal at 125 ng/ml MMP9,[7],2.01 reader units
same,test line signal at 250 ng/ml MMP9,[7],3.34 reader units
same,test line signal at 500 ng/ml MMP9,[7],3.73 reader units
same,test line signal at 1000 ng/ml MMP9,[7],4.33 reader units
same,test line signal at 2000 ng/ml MMP9,[7],8.7 reader units
same,cut-off of the assay,[8],The cut-off with all indicator molecules was below <31.25 ng/ml
same,test line signal at 31.25 ng/ml MMP9,[8],1.45 reader units
same,test line signal at 62.5 ng/ml MMP9,[8],2.56 reader units
same,test line signal at 125 ng/ml MMP9,[8],3.1 reader units
same,test line signal at 250 ng/ml MMP9,[8],5.58 reader units
same,test line signal at 500 ng/ml MMP9,[8],9.04 reader units
same,test line signal at 1000 ng/ml MMP9,[8],11.6 reader units
same,test line signal at 2000 ng/ml MMP9,[8],17.9 reader units
same,test line signal at 31.25 ng/ml MMP9,[9],1.04 reader units
same,test line signal at 62.5 ng/ml MMP9,[9],1.36 reader units
same,test line signal at 125 ng/ml MMP9,[9],2.14 reader units
same,test line signal at 250 ng/ml MMP9,[9],5.01 reader units
same,test line signal at 500 ng/ml MMP9,[9],9.93 reader units
same,test line signal at 1000 ng/ml MMP9,[9],16.8 reader units
same,test line signal at 2000 ng/ml MMP9,[9],20.5 reader units
